Laboratory results reported in the Immune Epitope Database (IEDB).

Experiments:
HLA-A*11:01 [1] = assay: IEDB peptide-MHC binding, purified MHC/competitive/fluorescence; ≥ and ≤ were set here for values at or beyond the usual limits of such assays
HLA-A*02:01 [2] = assay: IEDB peptide-MHC binding, purified MHC/competitive/fluorescence; filed as Kd, often an IC50 or EC50 that approximates it; ≥ and ≤ were set here for values at or beyond the usual limits of such assays; details: source organism: Yersinia bercovieri ATCC 43970
HLA-B*39:01 = assay: as above; details: source organism: Yersinia bercovieri ATCC 43970
HLA-B*15:01 [3] = assay: as above; details: source organism: Yersinia bercovieri ATCC 43970
HLA-B*08:01 [4] = assay: IEDB peptide-MHC binding, purified MHC/competitive/radioactivity; filed as Kd, often an IC50 or EC50 that approximates it; ≥ and ≤ were set here for values at or beyond the usual limits of such assays
HLA-A*26:01 [5] = assay: IEDB peptide-MHC binding, purified MHC/competitive/fluorescence; filed as Kd, often an IC50 or EC50 that approximates it; ≥ and ≤ were set here for values at or beyond the usual limits of such assays; details: source organism: Bacillus anthracis str. A0488
HLA-A*24:02 = assay: IEDB peptide-MHC binding, purified MHC/competitive/fluorescence; ≥ and ≤ were set here for values at or beyond the usual limits of such assays
HLA-B*08:01 [6] = assay: IEDB peptide-MHC binding, purified MHC/direct/fluorescence; filed as Kd, often an IC50 or EC50 that approximates it; ≥ and ≤ were set here for values at or beyond the usual limits of such assays
HLA-A*11:01 [7] = assay: as above
HLA-A*31:01 = assay: as above
HLA-A*02:01 [8] = assay: as above
HLA-B*07:02 = assay: as above
HLA-A*01:01 [9] = assay: as above; details: source organism: Vibrio parahaemolyticus
HLA-A*26:01 [10] = assay: as above
HLA-A*03:01 [11] = assay: as above
HLA-B*58:01 = assay: as above; details: source organism: Vibrio parahaemolyticus
HLA-B*27:05 = assay: as above
HLA-A*69:01 = assay: as above
HLA-B*44:02 = assay: as above
HLA-B*15:01 [12] = assay: as above
HLA-B*40:01 = assay: as above
HLA-A*03:01 [13] = assay: IEDB peptide-MHC binding, purified MHC/competitive/fluorescence; filed as Kd, often an IC50 or EC50 that approximates it; ≥ and ≤ were set here for values at or beyond the usual limits of such assays; details: source organism: Influenza A virus (A/equine/California/8560/2002(H3N8))
HLA-B*57:01 = assay: IEDB peptide-MHC binding, purified MHC/competitive/radioactivity; filed as Kd, often an IC50 or EC50 that approximates it; ≥ and ≤ were set here for values at or beyond the usual limits of such assays
HLA-B*53:01 = assay: as above; details: source organism: Dengue virus 4 Philippines/H241/1956
HLA-B*35:01 = assay: as above; details: source organism: Dengue virus 4 Philippines/H241/1956
HLA-A*01:01 [14] = assay: as above; details: source organism: Dengue virus 4 Philippines/H241/1956
HLA-B*15:01 [15] = assay: as above
HLA-A*24:03 = assay: IEDB peptide-MHC binding, purified MHC/direct/fluorescence; filed as Kd, often an IC50 or EC50 that approximates it; ≥ and ≤ were set here for values at or beyond the usual limits of such assays; details: source organism: Giardia lamblia ATCC 50803
HLA-A*02:01 [16] = assay: IEDB peptide-MHC binding, purified MHC/competitive/fluorescence; ≥ and ≤ were set here for values at or beyond the usual limits of such assays
HLA-A*32:01 = assay: IEDB peptide-MHC binding, purified MHC/competitive/radioactivity; filed as Kd, often an IC50 or EC50 that approximates it; ≥ and ≤ were set here for values at or beyond the usual limits of such assays; details: source organism: Vaccinia virus WR
HLA-B*48:01 = assay: IEDB peptide-MHC binding, purified MHC/direct/fluorescence; filed as Kd, often an IC50 or EC50 that approximates it; ≥ and ≤ were set here for values at or beyond the usual limits of such assays; details: source organism: Yellow fever virus
[17] = source organism: Sudan ebolavirus
[18] = source organism: Vaccinia virus Copenhagen
[19] = source organism: Vaccinia virus WR
[20] = source organism: Vibrio parahaemolyticus
[21] = source organism: Dengue virus 1 Brazil/97-11/1997
[22] = source organism: Dengue virus 4 Philippines/H241/1956
[23] = source organism: Zaire ebolavirus
[24] = source organism: Giardia lamblia ATCC 50803

CPGDYAFHK
IC50 (HLA-A*11:01 [1]; [17]): 55.3 µM

WQMFMKVTV
Kd (HLA-A*02:01 [2]): 0.0156 µM
Kd (HLA-B*39:01): 0.389 µM
Kd (HLA-B*15:01 [3]): 1.29 µM

WCRLKFHIV
Kd (HLA-B*08:01 [4]; [18]): 0.0819 µM

NTVKSFLNF
Kd (HLA-A*26:01 [5]): 0.269 µM

ALMRRIAVV
Kd (HLA-B*08:01 [4]; [19]): 1.35 µM

NFAEGVIAF
IC50 (HLA-A*24:02; [17]): 4.18 µM

EEDLPVTWR
Kd (HLA-B*08:01 [6]; [20]): ≥ 20 µM
Kd (HLA-A*11:01 [7]; [20]): ≥ 20 µM
Kd (HLA-A*31:01; [20]): ≥ 20 µM
Kd (HLA-A*02:01 [8]; [20]): ≥ 20 µM
Kd (HLA-B*07:02; [20]): ≥ 20 µM
Kd (HLA-A*01:01 [9]): ≥ 20 µM
Kd (HLA-A*26:01 [10]; [20]): ≥ 20 µM
Kd (HLA-A*03:01 [11]; [20]): ≥ 20 µM
Kd (HLA-B*58:01): ≥ 20 µM
Kd (HLA-B*27:05; [20]): ≥ 20 µM
Kd (HLA-A*69:01; [20]): ≥ 20 µM
Kd (HLA-B*44:02; [20]): ≥ 20 µM
Kd (HLA-B*15:01 [12]; [20]): ≥ 20 µM
Kd (HLA-B*40:01; [20]): ≥ 20 µM

MTIASVPTSR
Kd (HLA-A*03:01 [13]): 1.01 µM

WTSGASTSQE
Kd (HLA-B*57:01; [21]): 0.206 µM

MLILNFCKL
Kd (HLA-B*08:01 [4]; [18]): 0.00391 µM

FALLAGFMAY
Kd (HLA-B*53:01): 3.15 µM
Kd (HLA-B*35:01): 0.0133 µM
Kd (HLA-A*01:01 [14]): 13.5 µM
Kd (HLA-B*15:01 [15]; [22]): 0.00641 µM

DNTQSEHSF
IC50 (HLA-A*24:02; [23]): 49.7 µM

RTDPVIDNI
Kd (HLA-B*08:01 [6]; [24]): ≥ 20 µM
Kd (HLA-A*11:01 [7]; [24]): ≥ 20 µM
Kd (HLA-A*31:01; [24]): ≥ 20 µM
Kd (HLA-A*02:01 [8]; [24]): ≥ 20 µM
Kd (HLA-B*07:02; [24]): ≥ 20 µM
Kd (HLA-A*26:01 [10]; [24]): ≥ 20 µM
Kd (HLA-A*03:01 [11]; [24]): ≥ 20 µM
Kd (HLA-B*27:05; [24]): ≥ 20 µM
Kd (HLA-A*69:01; [24]): ≥ 20 µM
Kd (HLA-A*24:03): 2.75 µM
Kd (HLA-B*44:02; [24]): ≥ 20 µM
Kd (HLA-B*15:01 [12]; [24]): ≥ 20 µM
Kd (HLA-B*40:01; [24]): ≥ 20 µM

FFKFSFMYI
Kd (HLA-B*08:01 [4]; [19]): 0.84 µM

VMLIGIEIL
IC50 (HLA-A*02:01 [16]; [19]): 0.161 µM
IC50 (HLA-A*24:02; [19]): 37.6 µM

SFQQTNAMV
IC50 (HLA-A*02:01 [16]; [23]): 31.7 µM
IC50 (HLA-A*24:02; [23]): 18.1 µM

EYRFLVINR
IC50 (HLA-A*11:01 [1]; [19]): ≥ 490 µM
IC50 (HLA-A*24:02; [19]): 57.6 µM

RSMYRIPPF
Kd (HLA-B*08:01 [4]; [19]): 0.157 µM
Kd (HLA-A*32:01): 0.000726 µM

ATRLENIMW
Kd (HLA-B*57:01; [21]): 0.00231 µM

KRVVASLMR
Kd (HLA-B*48:01): ≥ 20 µM

GTSITQKGII
Kd (HLA-B*57:01; [21]): 9.33 µM

IILFQRTFS
IC50 (HLA-A*02:01 [16]; [23]): ≥ 81.4 µM
IC50 (HLA-A*24:02; [23]): ≥ 294 µM

IMAIGIVSIL
Kd (HLA-B*08:01 [4]; [21]): 0.445 µM
Kd (HLA-B*15:01 [15]; [21]): 0.0272 µM

WFSRENSYSG
Kd (HLA-B*57:01; source organism: Dengue virus 3 Martinique/1243/1999): 7 µM

RASFIEVKTC
Kd (HLA-B*57:01; [21]): 0.0537 µM

SNTTGKLIW
IC50 (HLA-A*24:02; [23]): 9.97 µM

VLKPSVIEE
IC50 (HLA-A*11:01 [1]; [19]): ≥ 257 µM

VPFIRNPNK
IC50 (HLA-A*11:01 [1]; [19]): 47.2 µM

GSRAIWYMW
Kd (HLA-B*57:01; [22]): 0.00172 µM

DYRFRFRSV
Kd (HLA-B*08:01 [4]; [19]): 0.683 µM
